From publication PMC11809661 (2024)

What was measured:
Protein S [1] = target: T1, Protein S (Homo sapiens, UniProt P07225); assay: ELISA plate-binding
T1 chain: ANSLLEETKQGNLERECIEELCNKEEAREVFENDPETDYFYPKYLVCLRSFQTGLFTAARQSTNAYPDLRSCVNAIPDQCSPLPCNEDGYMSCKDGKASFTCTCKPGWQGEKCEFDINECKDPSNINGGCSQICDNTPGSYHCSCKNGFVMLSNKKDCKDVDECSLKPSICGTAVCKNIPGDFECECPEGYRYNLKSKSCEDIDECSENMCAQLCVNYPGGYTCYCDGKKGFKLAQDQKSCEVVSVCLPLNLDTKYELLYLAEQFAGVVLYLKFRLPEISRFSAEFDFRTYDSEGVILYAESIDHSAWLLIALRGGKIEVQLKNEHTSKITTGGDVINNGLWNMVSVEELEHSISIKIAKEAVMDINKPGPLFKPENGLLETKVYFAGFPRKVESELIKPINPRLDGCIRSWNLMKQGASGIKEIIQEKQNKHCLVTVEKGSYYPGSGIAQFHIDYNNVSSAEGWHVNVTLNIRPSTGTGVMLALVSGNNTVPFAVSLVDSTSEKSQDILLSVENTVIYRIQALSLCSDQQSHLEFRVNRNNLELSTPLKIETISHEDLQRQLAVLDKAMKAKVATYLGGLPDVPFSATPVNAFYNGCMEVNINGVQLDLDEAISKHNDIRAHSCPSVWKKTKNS

Protein S [2] = target: T2, Protein S (Mus musculus, UniProt Q08761); assay: ELISA plate-binding
T2 chain: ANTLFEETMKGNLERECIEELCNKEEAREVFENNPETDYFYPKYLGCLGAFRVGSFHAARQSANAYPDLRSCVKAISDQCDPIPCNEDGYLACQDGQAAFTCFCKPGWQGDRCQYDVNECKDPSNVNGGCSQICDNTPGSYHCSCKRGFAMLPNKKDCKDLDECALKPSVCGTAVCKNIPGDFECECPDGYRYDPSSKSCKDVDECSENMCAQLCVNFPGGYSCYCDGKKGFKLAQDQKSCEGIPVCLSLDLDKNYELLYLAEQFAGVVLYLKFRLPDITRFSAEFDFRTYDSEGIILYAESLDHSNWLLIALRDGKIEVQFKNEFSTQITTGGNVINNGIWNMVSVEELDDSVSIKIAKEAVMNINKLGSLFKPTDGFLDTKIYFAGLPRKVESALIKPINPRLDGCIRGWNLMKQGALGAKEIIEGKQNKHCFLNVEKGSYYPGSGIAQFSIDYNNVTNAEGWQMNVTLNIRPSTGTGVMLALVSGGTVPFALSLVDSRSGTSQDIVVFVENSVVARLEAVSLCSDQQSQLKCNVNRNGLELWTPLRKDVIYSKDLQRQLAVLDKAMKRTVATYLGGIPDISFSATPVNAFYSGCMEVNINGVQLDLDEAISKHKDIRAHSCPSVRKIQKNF

B1: C4BPβ 1-119 (protein)
chain: MFFWCACCLMVAWRVSASDAEHCPELPPVDNSIFVAKEVEGQILGTYVCIKGYHLVGKKTLFCNASKEWDNTTTECRLGHCPDPVLVNGEFSSSGPVNVSDKITFMCNDHYILKGSNRS
Question: How did the Kd (Protein S [1]) turn out when B1 was run?
Answer: 0.86 nM

Question: And the Kd (Protein S [2])?
Answer: 0.21 nM
